# Measurements published in patent US20180360907A1.
# Molecular target: CCR5 on human monocytes (human) (UniProt P51681)
# Assay: cell-based or functional assay
substance,measurement,value
human CCL4 (MIP-1β) (from UniProt P13236 24-92) (ligand),"chemotactic index of human monocytes, without RAP-103 (times over control)",2
